Results taken from article PMC11645210.

Target: Shaanxi2011 RBD (bat sarbecovirus Shaanxi2011)
Assay: SPR

Substance: VIR-7229 Fab fragment
- Kd: 185 nM
- koff: 0.00985 s⁻¹
- kon: 53500 M⁻¹ s⁻¹
